From patent publication US20260167699A1 (Chugai, published 2026)

B1: GpH7-A5/GpH7-B3 variant S239_14T/GpL16-k0 (antibody, human IgG1, kappa)
heavy 1: not shown
heavy 2: not shown
light: DIVMTQSPLSLPVTPGEPASISCQASESLVHSNRNTYLHWYLQKPGQSPQLLIYKVSNRFSGVPDRFSGSGSGTDFTLKISRVEAEDVGVYYCSQNTHVPPTFGQGTKVEIERTVAAPSVFIFPPSDEQLKSGTASVVCLLNNFYPREAKVQWKVDNALQSGNSQESVTEQDSKDSTYSLSSTLTLSKADYEKHKVYACEVTHQGLSSPVTKSFNRGEC
notes: copies: 1 + 1 + 2
B2: GpH7-A5/GpH7-B3 variant S239_18N/GpL16-k0 (antibody, human IgG1, kappa)
heavy 1: not shown
heavy 2: not shown
light: B1 light
notes: copies: 1 + 1 + 2
B3: GpH7-A5/GpH7-B3 variant S337_11K/GpL16-k0 (antibody, human IgG1, kappa)
heavy 1: not shown
heavy 2: not shown
light: B1 light
notes: copies: 1 + 1 + 2
B4: GpH7-A5/GpH7-B3 variant S298_04F/GpL16-k0 (antibody, human IgG1, kappa)
heavy 1: not shown
heavy 2: not shown
light: B1 light
notes: copies: 1 + 1 + 2
B5: GpH7-A5/GpH7-B3 variant S337_04F/GpL16-k0 (antibody, human IgG1, kappa)
heavy 1: not shown
heavy 2: not shown
light: B1 light
notes: copies: 1 + 1 + 2
B6: GpH7-A5/GpH7-B3 variant S324_02A/GpL16-k0 (antibody, human IgG1, kappa)
heavy 1: not shown
heavy 2: not shown
light: B1 light
notes: copies: 1 + 1 + 2
B7: GpH7-A5/GpH7-B3 variant S298_15Y/GpL16-k0 (antibody, human IgG1, kappa)
heavy 1: not shown
heavy 2: not shown
light: B1 light
notes: copies: 1 + 1 + 2
B8: GpH7-A5/GpH7-B3 variant S298_09D/GpL16-k0 (antibody, human IgG1, kappa)
heavy 1: not shown
heavy 2: not shown
light: B1 light
notes: copies: 1 + 1 + 2
B9: GpH7-A5/GpH7-B3 variant S337_19Q/GpL16-k0 (antibody, human IgG1, kappa)
heavy 1: not shown
heavy 2: not shown
light: B1 light
notes: copies: 1 + 1 + 2
B10: GpH7-A5/GpH7-B3 variant S324_03V/GpL16-k0 (antibody, human IgG1, kappa)
heavy 1: not shown
heavy 2: not shown
light: B1 light
notes: copies: 1 + 1 + 2
B11: GpH7-A5/GpH7-B3 variant T335_01G/GpL16-k0 (antibody, human IgG1, kappa)
heavy 1: not shown
heavy 2: not shown
light: B1 light
notes: copies: 1 + 1 + 2
B12: GpH7-A5/GpH7-B3 variant S337_02A/GpL16-k0 (antibody, human IgG1, kappa)
heavy 1: not shown
heavy 2: not shown
light: B1 light
notes: copies: 1 + 1 + 2
B13: GpH7-A5/GpH7-B3 variant S298_07I/GpL16-k0 (antibody, human IgG1, kappa)
heavy 1: not shown
heavy 2: not shown
light: B1 light
notes: copies: 1 + 1 + 2
B14: GpH7-A5/GpH7-B3 variant S267_01G/GpL16-k0 (antibody, human IgG1, kappa)
heavy 1: not shown
heavy 2: not shown
light: B1 light
notes: copies: 1 + 1 + 2
B15: GpH7-A5/GpH7-B3 variant S337_12R/GpL16-k0 (antibody, human IgG1, kappa)
heavy 1: not shown
heavy 2: not shown
light: B1 light
notes: copies: 1 + 1 + 2
B16: GpH7-A5/GpH7-B3 variant S298_08L/GpL16-k0 (antibody, human IgG1, kappa)
heavy 1: not shown
heavy 2: not shown
light: B1 light
notes: copies: 1 + 1 + 2
B17: GpH7-A5/GpH7-B3 variant S267_02A/GpL16-k0 (antibody, human IgG1, kappa)
heavy 1: not shown
heavy 2: not shown
light: B1 light
notes: copies: 1 + 1 + 2
B18: GpH7-A5/GpH7-B3 variant S337_14T/GpL16-k0 (antibody, human IgG1, kappa)
heavy 1: not shown
heavy 2: not shown
light: B1 light
notes: copies: 1 + 1 + 2
B19: GpH7-A5/GpH7-B3 variant S298_11K/GpL16-k0 (antibody, human IgG1, kappa)
heavy 1: not shown
heavy 2: not shown
light: B1 light
notes: copies: 1 + 1 + 2
B20: GpH7-A5/GpH7-B3 variant S337_01G/GpL16-k0 (antibody, human IgG1, kappa)
heavy 1: not shown
heavy 2: not shown
light: B1 light
notes: copies: 1 + 1 + 2
B21: GpH7-A5/GpH7-B3 variant S298_19Q/GpL16-k0 (antibody, human IgG1, kappa)
heavy 1: not shown
heavy 2: not shown
light: B1 light
notes: copies: 1 + 1 + 2
B22: GpH7-A5/GpH7-B3 variant S337_09D/GpL16-k0 (antibody, human IgG1, kappa)
heavy 1: not shown
heavy 2: not shown
light: B1 light
notes: copies: 1 + 1 + 2
B23: GpH7-A5/GpH7-B3 variant S324_01G/GpL16-k0 (antibody, human IgG1, kappa)
heavy 1: not shown
heavy 2: not shown
light: B1 light
notes: copies: 1 + 1 + 2
B24: GpH7-A5/GpH7-B3 variant S324_06M/GpL16-k0 (antibody, human IgG1, kappa)
heavy 1: not shown
heavy 2: not shown
light: B1 light
notes: copies: 1 + 1 + 2
B25: GpH7-A5/GpH7-B3 variant S324_09D/GpL16-k0 (antibody, human IgG1, kappa)
heavy 1: not shown
heavy 2: not shown
light: B1 light
notes: copies: 1 + 1 + 2
B26: GpH7-A5/GpH7-B3 variant S337_15Y/GpL16-k0 (antibody, human IgG1, kappa)
heavy 1: not shown
heavy 2: not shown
light: B1 light
notes: copies: 1 + 1 + 2
B27: GpH7-A5/GpH7-B3 variant S324_14T/GpL16-k0 (antibody, human IgG1, kappa)
heavy 1: not shown
heavy 2: not shown
light: B1 light
notes: copies: 1 + 1 + 2
B28: GpH7-A5/GpH7-B3 variant S298_16H/GpL16-k0 (antibody, human IgG1, kappa)
heavy 1: not shown
heavy 2: not shown
light: B1 light
notes: copies: 1 + 1 + 2
B29: GpH7-A5/GpH7-B3 variant S298_03V/GpL16-k0 (antibody, human IgG1, kappa)
heavy 1: not shown
heavy 2: not shown
light: B1 light
notes: copies: 1 + 1 + 2
B30: GpH7-A5/GpH7-B3 variant S267_19Q/GpL16-k0 (antibody, human IgG1, kappa)
heavy 1: not shown
heavy 2: not shown
light: B1 light
notes: copies: 1 + 1 + 2

target: T1, FcγRIIIa (human, UniProt P08637 17-208); test: SPR (Biacore);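 note: antibody variants captured on an SPR sensor chip, with FcγRIIIa passed over as analyte in HBS-EP+ buffer at 25 °C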
T1 construct: extracellular domain; also called 3a; FcγRIIIa extracellular domain
T1 sequence (P08637 other isoform, or with tags, fused parts or gaps): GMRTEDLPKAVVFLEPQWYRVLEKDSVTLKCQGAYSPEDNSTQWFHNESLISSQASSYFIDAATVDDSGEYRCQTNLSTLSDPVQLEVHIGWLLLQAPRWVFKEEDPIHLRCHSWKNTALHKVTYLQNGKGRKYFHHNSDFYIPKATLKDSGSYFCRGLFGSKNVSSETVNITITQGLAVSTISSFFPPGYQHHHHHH

Binder	He/Con 3a
B1	93 % of GpH7-A5/GpH7-B3/GpL16-k0
B2	104 % of GpH7-A5/GpH7-B3/GpL16-k0
B3	80.1 % of GpH7-A5/GpH7-B3/GpL16-k0
B4	77.6 % of GpH7-A5/GpH7-B3/GpL16-k0
B5	94.4 % of GpH7-A5/GpH7-B3/GpL16-k0
B6	113 % of GpH7-A5/GpH7-B3/GpL16-k0
B7	80.6 % of GpH7-A5/GpH7-B3/GpL16-k0
B8	62.7 % of GpH7-A5/GpH7-B3/GpL16-k0
B9	91.2 % of GpH7-A5/GpH7-B3/GpL16-k0
B10	101 % of GpH7-A5/GpH7-B3/GpL16-k0
B11	95.1 % of GpH7-A5/GpH7-B3/GpL16-k0
B12	92.4 % of GpH7-A5/GpH7-B3/GpL16-k0
B13	90.7 % of GpH7-A5/GpH7-B3/GpL16-k0
B14	53.3 % of GpH7-A5/GpH7-B3/GpL16-k0
B15	92.7 % of GpH7-A5/GpH7-B3/GpL16-k0
B16	69.2 % of GpH7-A5/GpH7-B3/GpL16-k0
B17	149 % of GpH7-A5/GpH7-B3/GpL16-k0
B18	94 % of GpH7-A5/GpH7-B3/GpL16-k0
B19	50 % of GpH7-A5/GpH7-B3/GpL16-k0
B20	95.2 % of GpH7-A5/GpH7-B3/GpL16-k0
B21	70.6 % of GpH7-A5/GpH7-B3/GpL16-k0
B22	102 % of GpH7-A5/GpH7-B3/GpL16-k0
B23	114 % of GpH7-A5/GpH7-B3/GpL16-k0
B24	124 % of GpH7-A5/GpH7-B3/GpL16-k0
B25	110 % of GpH7-A5/GpH7-B3/GpL16-k0
B26	94.9 % of GpH7-A5/GpH7-B3/GpL16-k0
B27	112 % of GpH7-A5/GpH7-B3/GpL16-k0
B28	71.9 % of GpH7-A5/GpH7-B3/GpL16-k0
B29	103 % of GpH7-A5/GpH7-B3/GpL16-k0
B30	64.3 % of GpH7-A5/GpH7-B3/GpL16-k0
